Reference: paper doi:10.1101/2025.05.22.655451

The substances below were run against HA N-terminally tagged C99 (APP C-terminal fragment C99) (UniProt P05067) (assay: proximity ligation).
HA N-terminally tagged C99 (APP C-terminal fragment C99), sequence (P05067 672-770): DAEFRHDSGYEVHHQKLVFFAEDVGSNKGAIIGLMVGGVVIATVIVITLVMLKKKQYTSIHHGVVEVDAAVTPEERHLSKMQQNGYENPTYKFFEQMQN

Substance	PLA+ spots per cell (PLA+ spots per cell)
Chimera of the TM of MT1-MMP and the IC of MT5-MMP	25
MT5-MMP TM/IC (transmembrane and intracellular domains, extracellular domains depleted) (from UniProt Q9Y5R2 53-645) (domain or fragment)	25
MT5-MMP TM/IC with alanine substitutions of the C-terminal PDZ-binding EWV motif (domain or fragment)	21
